According to the nanobody polyreactivity screen of Harvey et al. (2022):

Experiment: yeast display, Sf9 membrane polyspecificity reagent, FACS + sequencing; frameworks hold sequencing errors
Method in brief: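 Nanobodies from a synthetic yeast display library (Saccharomyces cerevisiae BJ5465), induced 36–48 hours with galactose, were stained 1 hour at 4 °C with 10% biotinylated, detergent-solubilized Sf9 membrane reagent, enriched on streptavidin microbeads, then FACS-sorted. Anti-HA (expression) and streptavidin (reagent binding) fluorescence set low and high (top ~1%) gates. Polyreactivity labels come from the gate of origin. Genes were colony-PCR amplified, MiSeq 2 × 250 sequenced and filtered by CDR length.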

Sequence	polyreactivity (PSR sort gate)
QVQLVESGGGLVQAGGILRLSCAASGITFIRNGMGWYRQAPGKERELVAAISDTGARTYYADSVKGSFTISRDNAKNTVYLQMNSLKPVDTAVYYCAAEVRTRYLYSFRWYDYWGQGTQVTVSS	low polyreactivity
QVQLVESGGGLVQAGGILRLSCAASGLTYFYYAMGWYRQAPGKESELVAAISWSGGRTYYADSVKGRFTISRDNAKNTVYLPMNSLKPEDTAVYYCAADYITAHSSYSTYGYWGQGTQVTVSS	low polyreactivity
QVQLVESGGGLVQAGGILRLSCAASGRIFLYYTMGWYRQAPGKEREFVAAITRSGSSTYYADSVKGRFTISRDNAKNTVYLQMNSLKREDTAVYYCNRVFTWRYGYRYEYWGQGTHVTVSS	high polyreactivity
QVQLVESGGGLVQAGGILRLSCAASGRIFRFYTMGWYRQAPGKERELVAAITSSGRTYYADSVKGRVTISRDNAKNTVYLQMNSLKPEDTAVYYCNKYFRPRTILASPGEYWGQGTQVTVSS	high polyreactivity
QVQLVESGGGLVQAGGILRLSCAASGRIFYINAMGWYRQAPGKERELVATISWSGGSTNYADSVKGRFTISRDNAKNTVYLQMKSLIPEDTAVYYCAADSRIYIAYAVRSYERDYWGQGTQVSVSS	low polyreactivity
QVQLVESGGGLVQAGGILRLSCAASGRIIQRYAMGWYRQAPGKERELVAAISSSGVSTYYADSVKGRFTISRDNAKNTVYLQMNSLKPEDTAVYYCNAVSSRVYRDYGYDYWGQGTQVTVSS	low polyreactivity
QVQLVESGGGLVQAGGILRLSCAASGRTFLVNAMGWYRQAPGKERELVAAISQRGGSTDYADSVKGRFTISRDNAKNTVYLQMNSLKPEDTAVYYCAVRWGYLYDYWGQGTQVTVSS	low polyreactivity
QVQLVESGGGLVQAGGILRLSCAASGRTFNGNAMGWYRQAPGKERELVAAISGGSTSYADSVKGRFTISRDNAKNTVYLQMNSLKPEDTAVYYCATDPSEEYDYWGQGNQVTVSS	low polyreactivity
QVQLVESGGGLVQAGGILRLSCAASGRTFNQNAMGWYRQAPGKERELVAAITSRGGSTFYAASVKGRFTISRDNAKNTVYLQMNSLKPEDTAVDYCAAPRKQLEVGPGYYWGQGTQVTVSS	high polyreactivity
QVQLVESGGGLVQAGGILRLSCAASGRTFSRYAMGWYRQAPGKERELVAAITWDGGSTYYADSVKGRFTISRDNAKNSVYLLMNSLKPEDTAVYYFAARYIRNRMNYWGQGTQVTVSS	high polyreactivity
QVQLVESGGGLVQAGGILRLSCAASGRTLYHYVMGWYRQAPGKERELVAAISSGGSTYYADSVKGRFTISRDNAKNTVYLQMNSLKPEDTEVYYCAAGRRGDWGQGTQVTVSS	high polyreactivity
QVQLVESGGGLVQAGGILRLSCAASGSIFDFYAMGWYRQAPGKERELVAAISGSGGSTYYADSVKGRFTISRDNAKNTVYLQMNSLKPEDTAVYYCSYYYWGQGTQVTVSS	low polyreactivity
QVQLVESGGGLVQAGGILRLSCAASGSIFGGYGMGWYRQAPGKERELVAAITSVSSTYYADSVKGRFTISRDNAMNTVYVQMNSLKPEDTAVYYCAARPYPHSAYEGDYWGRGTQVTVSS	low polyreactivity
QVQLVESGGGLVQAGGILRLSCAASGSIFPNYAMGWYRQAPGKEREFVAAISSSGGSTYYADYVKGRFTISRENAKNTVYLQMNSLKPDDTAVYYCAAAYVGYYYSRGFDYWGQGTQVTVSS	high polyreactivity
QVQLVESGGGLVQAGGILRLSCAASGSIFQYNAKGWYIQEPGKEREFVAAISGSGTTTYYADSVKGRFTISRDNAKNTVYLQMNSLKPEDTAVYYCAKAIRHYPDVAYNAWGQGSQVTVSS	high polyreactivity
QVQLVESGGGLVQAGGILRLSCAASGSIFRNYAMGWYRQAPGKERELVAAISVRGGSTYYADSVKGRFTISRDNTKNTVYLQMNSLKPEDTAVYYCNARTYYPVYYRDGGYWGQGTQVTVSS	high polyreactivity
QVQLVESGGGLVQAGGILRLSCAASGSIFSGYAMGWYRQAPGKERELVAAITWRAASTYYADSVKGRFTISRDNAKNTVYLQMNSLKPEDTAVYYCAKEGWPKPAFYYWGQGTQVTVSS	low polyreactivity
QVQLVESGGGLVQAGGILRLSCAASGSIFSPYVMGWYRQAPGKERELVAAISTGGSTYYADSVKGRFTISRDNAKNTVYLQMNSLKPEDTAVYYCATDGWKQSAYDYWGQGTQVTVSS	low polyreactivity
QVQLVESGGGLVQAGGILRLSCAASGSTFFSNTKGWYRQAPGKERELVAAITDSGTSTYYADSVKGRFTISRDIAKNTVYLQMNSLKPEDTAVYYGDAYPSGWYDYWGHGTQVTVSS	low polyreactivity
QVQLVESGGGLVQAGGILRLSCAASGSTFQSNAMGWYRQAPGKERELVAAISSSAGTTFYADSVKGRFTISRDNAKNTVYLQMNSLKPEDTAVYYCAKKDFYFAPSPGYYRSRDYWGQGTQVTVSS	low polyreactivity
QVQLVESGGGLVQAGGILRLSCAASGSTIEFNAMGWYRPAPGKERELVAAISGSGASTYYADSVKGRFTISRDNAKNTVYLQMNSLTPEDTAVYYCNADSLYYDYQTVVVQALDYWGQGTQVTVSS	low polyreactivity
QVQLVESGGGLVQAGGILRLSCAASGSTLGFNAMGWYRLAPGKEREFDAGISASGSSTYYADSVKGRFTISRDNAKNTVYLQMNSLKPEDTAVYYCYAPRGSRRSYRRTEFYYWGQGTQVTVSS	high polyreactivity
QVQLVESGGGLVQAGGILRLSCAASGSTTYYYAMGWYRQQPGKDRELVATISTTGAGTYYADSVKGRFTISRDNAKNTVYLQMNSLKPEDTAVYYCAKDGKASRDDAEYDYWGQGTQVTVSS	low polyreactivity
QVQLVESGGGLVQAGGILRLSCAASGYNFKYYAMGWYRQAPGKERELVAAISRSGGSTYYADSVKGRFTISRDNAKNTVYLQMNSLTPEDTAVYYCAAYTHYAYGHDYWGQGTQVTVSS	high polyreactivity
QVQLVESGGGLVQAGGILRLSCAAYGRTSSYTMGWDIQANGQERELVAAITRRGGSTYYADSVKGRFTISRDHAKNSVYLQMNSLKPEDTAVYYCAASYRGEYDYWGQGTQVTVSS	high polyreactivity
QVQLVESGGGLVQAGGILRLSCADSGRTFGSNAMGWYRQAPGKERELVAAISGRTDSTYYADSVKGRFTISRDNAKNTVYLQMNSLKPEDTAVYYCAADSADVLYYYIRYNYWGQGTQVTVSS	low polyreactivity
QVQLVESGGGLVQAGGILRLSCAPYGSIFSQNAMGWYRQAPGKERELVAAISSSGTRTYYADSVKARFTISRDNAQNTVYLQMNSLKPEDTAVYYSNKVHFLPRYFLRSDYWGQGTQVTVSS	high polyreactivity
QVQLVESGGGLVQAGGILRLSCASSVTFFMGWYRQAPGKEWELVAGISISDVSTYYADSVKGRFTISRDNAKNTVYLQMNSLKPEDTAVYYCAAEFYPTTGFDYWGQGTQVTVSS	low polyreactivity
QVQLVESGGGLVQAGGILRLSCASYGSTFALYAMGWYRPAPGKERELVATITGSGGITYYADSVKGRFTISRDNAKNTVYLQMNSLKPVDTAVYYCAADPYTLYWYYWYGTSGFDYWGQGTQVTVSS	low polyreactivity
QVQLVESGGGLVQAGGILRLSCDASGFTFYYYTMGWYRQAPGKERELVAAISKSGGTTYYADSVKGRFTISRDNAKNTVYLQMNSLKPEDTAVYYCAAKPWVWVYARYGKHPSYDYWGQGTQVTVSS	high polyreactivity
